Results reported in article PMC8415317 (Genes & Development, 2021).
Numbering of substitutions follows the chain as printed. Names and notes keep the numbering of the source. “Also recorded” adds a separate entry of the source.

T1: PID-1-mVenus-Strep (C. elegans, UniProt Q19541 1-169)
T1 sequence (looked up): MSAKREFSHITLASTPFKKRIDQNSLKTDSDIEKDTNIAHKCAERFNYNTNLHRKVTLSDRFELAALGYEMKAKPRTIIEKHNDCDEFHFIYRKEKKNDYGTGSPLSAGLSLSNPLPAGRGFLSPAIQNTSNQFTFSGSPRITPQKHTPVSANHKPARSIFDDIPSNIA

T2: full-length TOST-1 (TOST-1^FL) (C. elegans, UniProt Q18490 1-142)
T2 sequence (looked up): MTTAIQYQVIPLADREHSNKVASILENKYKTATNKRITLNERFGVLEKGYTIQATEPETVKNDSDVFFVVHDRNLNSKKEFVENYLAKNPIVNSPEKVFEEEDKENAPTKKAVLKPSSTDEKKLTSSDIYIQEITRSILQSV

T3: ERH-2 I81A/R83A (C. elegans, UniProt Q20057 1-113, I81A | R83A)
T3 sequence (looked up): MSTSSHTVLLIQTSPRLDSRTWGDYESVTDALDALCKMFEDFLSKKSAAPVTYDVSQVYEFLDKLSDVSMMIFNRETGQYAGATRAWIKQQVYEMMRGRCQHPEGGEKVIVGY

T4: ERH-2 W87A (C. elegans, UniProt Q20057 1-113, W87A)
T4 sequence (looked up): T3 sequence (looked up) with A81I, A83R, W87A

T5: TOFU-6 (C. elegans, UniProt Q09293 1-367)
T5 sequence (looked up): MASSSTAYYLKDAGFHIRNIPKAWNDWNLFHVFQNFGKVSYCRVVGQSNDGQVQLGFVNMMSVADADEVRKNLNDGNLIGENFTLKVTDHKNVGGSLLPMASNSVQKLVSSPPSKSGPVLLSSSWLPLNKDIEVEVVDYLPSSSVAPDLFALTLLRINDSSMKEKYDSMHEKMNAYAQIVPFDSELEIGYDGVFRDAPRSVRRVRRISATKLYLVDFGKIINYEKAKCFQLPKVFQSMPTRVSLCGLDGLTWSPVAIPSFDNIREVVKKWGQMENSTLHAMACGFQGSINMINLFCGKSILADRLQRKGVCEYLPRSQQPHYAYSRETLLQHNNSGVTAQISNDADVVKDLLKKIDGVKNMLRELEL

T6: PID-3/ERH-2 subcomplex (C. elegans, UniProt O76616 1-307; Q20057 1-113)
T6 sequence (looked up) 1: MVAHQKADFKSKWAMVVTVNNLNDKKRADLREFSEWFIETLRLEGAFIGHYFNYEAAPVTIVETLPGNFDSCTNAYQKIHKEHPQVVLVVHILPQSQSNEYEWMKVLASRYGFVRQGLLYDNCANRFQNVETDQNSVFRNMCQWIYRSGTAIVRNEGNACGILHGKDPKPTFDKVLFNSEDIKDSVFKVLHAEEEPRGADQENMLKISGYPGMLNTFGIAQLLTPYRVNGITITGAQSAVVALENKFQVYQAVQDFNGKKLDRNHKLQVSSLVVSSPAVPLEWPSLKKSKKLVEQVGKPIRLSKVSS
T6 sequence (looked up) 2: T3 sequence (looked up) with A81I, A83R

T7: TOFU-6 RRM (Caenorhabditis elegans, UniProt Q09293 1-99)
T7 sequence: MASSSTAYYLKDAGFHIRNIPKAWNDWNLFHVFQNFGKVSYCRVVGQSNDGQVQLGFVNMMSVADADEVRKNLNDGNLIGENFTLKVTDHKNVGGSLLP

B1: full-length ERH-2^FL (natural protein, C. elegans, UniProt Q20057 1-113, looked up)
chain: T3 sequence (looked up) with A81I, A83R
B2: ERH-2^ΔC (domain or fragment, C. elegans, UniProt Q20057 1-99, looked up)
chain: MSTSSHTVLLIQTSPRLDSRTWGDYESVTDALDALCKMFEDFLSKKSAAPVTYDVSQVYEFLDKLSDVSMMIFNRETGQYIGRTRAWIKQQVYEMMRGR
B3: PID-3 full-length (natural protein, C. elegans, UniProt O76616 1-307, looked up)
chain: T6 sequence (looked up) 1
B4: ^15N-labeled full-length ERH-2 (natural protein, C. elegans)
chain: GHMASMSTSSHTVLLIQTSPRLDSRTWGDYESVTDALDALCKMFEDFLSKKSAAPVTYDVSQVYEFLDKLSDVSMMIFNRETGQYIGRTRAWIKQQVYEMMRGRCQHPEGGEKVIVGY
B5: TOST-1-mVenus-Strep (natural protein, C. elegans, UniProt Q18490 1-142, looked up)
chain: T2 sequence (looked up)
B6: PID-3(A220E) (protein, UniProt O76616 1-307, looked up, variant A220E)
Protein pid-3: T6 sequence (looked up) 1 with A220E
B7: PID-3 (I182A and V186A) (protein, UniProt O76616 1-307, looked up, variant I182A V186A)
Protein pid-3: T6 sequence (looked up) 1 with I182A, V186A

What was measured:
[1] = molecular target: T1, PID-1-mVenus-Strep; experiment: pull-down
[2] = molecular target: B3; experiment: SEC
[3] = molecular target: T2, full-length TOST-1 (TOST-1^FL); experiment: ITC
[4] = molecular target: T3, ERH-2 I81A/R83A; experiment: pull-down
[5] = molecular target: T4, ERH-2 W87A; experiment: pull-down
[6] = molecular target: the molecule itself; experiment: crystal structure
[7] = molecular target: the molecule itself; experiment: SEC-MALS
[8] = molecular target: T5, TOFU-6; experiment: SEC-MALS
[9] = molecular target: T2, full-length TOST-1 (TOST-1^FL); experiment: NMR titration
[10] = molecular target: T6, PID-3/ERH-2 subcomplex; experiment: pull-down
[11] = molecular target: T7, TOFU-6 RRM; experiment: fluorescence anisotropy
[12] = system: P granules (perinuclear foci); experiment: Subcellular localization by confocal microscopy; assay type: in vivo, C. elegans; conditions: GFP-tagged PID-3, 25°C
[13] = system: 21U RNA; experiment: 21U RNA sequencing; assay type: in vivo, C. elegans; conditions: small RNA-seq, 20°C and 25°C, n = 3, versus wild type

B1 was tested, and the binding result [1] was “binds”, the binding result [2] was “binds” and the Kd [3] was 13 µM.

TFDKVLFNSEDIKDSVFKVLHAEEEPRGADQEN (peptide, UniProt O76616 171-203, looked up) [GST-PID-3^pep]: binds [4]; binds [5].

B2: binds [6].

B3: binds [7]; binds [8].

B4: binds [9].

B5: binds [10].

In the case of UUUUUUUUUUUUUUUU (ssRNA) [Cy5-U16], the Kd [11] is reported as ~60 µM.

B6 was tested, and the subcellular localization [12] was “did not form perinuclear foci”.

For B7, the “21U RNA levels” value [13] was “temperature-sensitive effect on overall 21U RNA levels; also recorded: affect all 21U RNA species”.
